In article PMC12036799 (Metabolism: clinical and experimental, 2025):
Values joined by “and” are separate entries in the source; they are usually repeats but may differ in a detail not shown here. Identical values can stand only once.

Target: the molecule itself
Assay: dimer-tetramer equilibrium assay

B1: recombinant ALDOB WT (aldolase B) (enzyme, UniProt Q91Y97 1-364, looked up)
chain: MAHRFPALTPEQKKELSEIAQRIVANGKGILAADESVGTMGNRLQRIKVENTEENRRQFRELLFSVDNSISQSIGGVILFHETLYQKDSQGNLFRNVLKEKGIVVGIKLDQGGAPLAGTNKETTIQGLDGLSERCAQYKKDGVDFGKWRAVLRIADQCPSSLAIQENANALARYASICQQNGLVPIVEPEVLPDGDHDLEHCQYVSEKVLAAVYKALNDHHVYLEGTLLKPNMVTAGHACTKKYTPEQVAMATVTALHRTVPAAVPGICFLSGGMSEEDATLNLNAINRCPLPRPWKLSFSYGRALQASALAAWGGKAANKKATQEAFMKRAMANCQAAQGQYVHTGSSGAAATQSLFTASYTY
Question: B1 was tested. Which “stoichiometry N” value did it give?
Answer: 2 and 4
